This is an account of results in publication PMC8396344, “Palmitoylation of Prolactin-Releasing Peptide Increased Affinity for and Activation of the GPR10, NPFF-R2 and NPFF-R1 Receptors: In Vitro Study” (International Journal of Molecular Sciences, 2021).

In assay [1] the target is T1, GPR10 (Homo sapiens, UniProt P49683).
T1 construct: host or cells: CHO-K1
T1 sequence (P49683 1-370): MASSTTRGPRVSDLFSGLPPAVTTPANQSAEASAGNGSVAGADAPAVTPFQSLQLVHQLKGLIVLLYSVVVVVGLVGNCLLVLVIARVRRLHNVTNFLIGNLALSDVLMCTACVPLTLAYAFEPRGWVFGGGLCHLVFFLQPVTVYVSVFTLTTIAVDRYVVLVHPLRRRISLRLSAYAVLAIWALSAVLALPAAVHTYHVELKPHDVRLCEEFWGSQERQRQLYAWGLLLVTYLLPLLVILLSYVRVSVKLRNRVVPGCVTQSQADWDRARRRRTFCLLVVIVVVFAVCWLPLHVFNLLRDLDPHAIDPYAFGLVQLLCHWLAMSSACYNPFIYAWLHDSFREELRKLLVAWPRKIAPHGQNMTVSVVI
The experiment in a line: Cell signaling by immunoblotting, CHO-K1 cells expressing GPR10. In kind it is cell-based. The settings on record: dose-response 10^−11 to 10^−5 M, 5 min, 37 °C, immunoblot, at least two experiments. The protocol: (§1) Activation of signaling pathways was studied in the CHO-K1 cell lines containing GPR10, NPFF-R2 and NPFF-R1. Cells were seeded in 24-well plates at 30,000 cells/well in assay medium (growth medium without selective antibiotics) and were grown for 2 days. The day before the experiment, the medium was changed to serum-free medium. […] Cells were lysed with Laemmli sample buffer (62.5 mM Tris-HCl at pH 6.8, 2% SDS, 10% glycerol, 0.01% bromophenol blue, 5% β-mercaptoethanol, 50 mM NaF, and 1 mM Na3VO4). Samples were stored at −20 °C. Electrophoresis and immunoblotting were performed as described previously. For detection of signaling pathways, primary monoclonal antibodies (see Table 5 for the antibodies used) purchased from Cell Signaling Technology (Danvers, MA, USA) were used.
(§2) Experiments using immunoblotting were analyzed using one-way ANOVA followed by Dunnett’s post hoc test; p < 0.05 was considered statistically significant. Dose-response curves were obtained from nonlinear regression.
Background: Immunoblotting shows a protein as a band on a membrane.

In assay [2] the target is T2, NPFF-R2 (Homo sapiens, UniProt Q9Y5X5).
T2 construct: host or cells: CHO-K1 (AequoScreen, co-expressing aequorin)
The experiment in a line: Cell signaling by immunoblotting, CHO-K1 cells expressing NPFF-R2. The assay is classed as cell-based. The note with it: dose-response 10^−11 to 10^−5 M, 5 min, 37 °C, immunoblot, at least two experiments. The method, then:
as §1, with “Cells” for “Activation of signaling pathways was studied in the CHO-K1 cell lines containing GPR10, NPFF-R2 and NPFF-R1. Cells”
as §2

For the next assay, the target named is kappa-opioid receptor (UniProt P41145 1-380). The experiment in a line: radioligand binding; competition with [^125I]-dynorphin A on plasma membranes of CHO-K1 cells with KOR, 5 µg protein/tube; 50 mM Tris-HCl pH 7.4, 60 mM NaCl, 1 mM MgCl2, 0.5% BSA; 60 min at RT; filtration; Ki by the Cheng-Prusoff equation.
The target of assay [3] is T3, GPR10 (human, UniProt P49683 1-370).
T3 sequence (looked up): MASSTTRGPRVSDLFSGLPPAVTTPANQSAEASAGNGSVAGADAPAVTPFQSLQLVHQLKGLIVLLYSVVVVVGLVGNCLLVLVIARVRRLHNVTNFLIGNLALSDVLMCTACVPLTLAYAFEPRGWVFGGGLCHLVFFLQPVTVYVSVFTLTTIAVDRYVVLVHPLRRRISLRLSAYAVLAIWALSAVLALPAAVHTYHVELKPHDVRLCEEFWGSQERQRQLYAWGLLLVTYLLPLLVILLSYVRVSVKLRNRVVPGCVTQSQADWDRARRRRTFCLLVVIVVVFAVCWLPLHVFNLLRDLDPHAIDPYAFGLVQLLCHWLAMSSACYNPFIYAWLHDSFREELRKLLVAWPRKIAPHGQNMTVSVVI

Assay [4] deals with T4, NPFF-R2 (UniProt Q9Y5X5 1-522).
T4 construct: also called NPFF-2R; source: CHO-K1 cell line (AequoScreen), bought: Perkin Elmer
The experiment in a line: radioligand binding; competition with [^125I]-1DMe on plasma membranes of CHO-K1 cells with NPFF-R2 or NPFF-R1, 5 µg protein/tube; 50 mM Tris-HCl pH 7.4, 60 mM NaCl, 1 mM MgCl2, 0.5% BSA; 60 min at RT; filtration; Ki by the Cheng-Prusoff equation. The settings on record: one partner purified.

Another assay has as its target T5, NPFF-R1 (UniProt Q9GZQ6 1-430).
T5 construct: also called NPFF-1R; source: CHO-K1 cell line, bought: Perkin Elmer
The description is as above. The settings on record: one partner purified.

Non-standard residues stand in square brackets, D forms with d. No end group written: not given here. NMeF = CN[C@@H](Cc1ccccc1)C(=O)O

Turning to “SRAHQHSMETRTPDINPAWYTGRGIRPVGRF-NH2 [PrRP31, prolactin-releasing peptide 31, reference compound]”, the results for the “EC50 of ERK activation” value at GPR10 [1] and on NPFF-R2 [2] were “in the nanomolar range” and “in nanomolar concentrations”, respectively.

With [D-Pro10]-dynorphin A (peptide), the Ki (as a rule, the dissociation constant of the complex between target and ligand, obtained from inhibition or displacement) in the assay with kappa-opioid receptor was found to be 0.36 nM. As to human prolactin-releasing peptide 31, the EC50, agonist mode, β-lactamase reporter assay with GPR10 [3] was 0.53 nM.

B1: 1DMe (peptide)
peptide: [dY]L[NMeF]QPQRF-NH2
modifications: N-terminus assumed
SMILES: CC(C)C[C@H](NC(=O)[C@H](N)Cc1ccc(O)cc1)C(=O)N(C)[C@@H](Cc1ccccc1)C(=O)N[C@@H](CCC(N)=O)C(=O)N1CCC[C@H]1C(=O)N[C@@H](CCC(N)=O)C(=O)N[C@@H](CCCNC(=N)N)C(=O)N[C@@H](Cc1ccccc1)C(N)=O
notes: numbers count on: the peptide NPFF; source: synthetic peptide, purified (HPLC, purity greater than 95%)
B1: the results for the Ki with NPFF-R2 [4] and with NPFF-R1 were 1.03 nM and 0.79 nM, respectively.
